According to PMC8385704 (2021):

Biological target: His-tagged recombinant human ACE2 protein (residues 19-740), dimeric (human, UniProt Q9BYF1 19-740)
Test: BLI

Chain of His-tagged recombinant human ACE2 protein (residues 19-740), dimeric (Q9BYF1 19-740): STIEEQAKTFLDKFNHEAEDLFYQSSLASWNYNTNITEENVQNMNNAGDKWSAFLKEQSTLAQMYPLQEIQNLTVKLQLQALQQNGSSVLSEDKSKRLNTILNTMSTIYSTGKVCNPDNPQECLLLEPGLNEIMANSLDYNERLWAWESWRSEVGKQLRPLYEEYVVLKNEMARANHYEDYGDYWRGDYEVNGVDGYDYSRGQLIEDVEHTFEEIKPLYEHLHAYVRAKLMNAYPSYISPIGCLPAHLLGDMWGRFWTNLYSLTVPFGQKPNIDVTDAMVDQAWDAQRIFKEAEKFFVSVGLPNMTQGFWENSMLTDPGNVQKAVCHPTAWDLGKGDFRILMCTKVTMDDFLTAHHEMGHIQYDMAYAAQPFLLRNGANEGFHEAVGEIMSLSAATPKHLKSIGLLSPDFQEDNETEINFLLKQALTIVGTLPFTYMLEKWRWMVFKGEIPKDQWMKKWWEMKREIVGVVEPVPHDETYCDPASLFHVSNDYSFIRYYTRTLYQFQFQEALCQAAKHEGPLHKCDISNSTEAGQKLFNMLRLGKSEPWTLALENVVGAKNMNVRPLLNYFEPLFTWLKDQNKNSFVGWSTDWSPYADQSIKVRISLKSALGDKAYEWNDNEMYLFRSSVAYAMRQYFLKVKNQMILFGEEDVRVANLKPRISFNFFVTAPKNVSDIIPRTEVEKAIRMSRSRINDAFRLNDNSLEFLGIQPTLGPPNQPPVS

koff: 0.000278 s⁻¹
B1: monoclonal antibody 3E8 (antibody, V domains shown)
VH: EVQLEESGAELVRPGASVKISCKAFGYTFTNHHINWMKQRPGQGLDWIGYVNPYNDYTKYSQNFKGKATLSVDRSSSTAYMELSSLTSEDSAVYYCARWRDYDRDWYFDVWGAGTTVIVSS
VL: DIVMTQSPATLSVTPGDRVSLSCRASQSIRDYLYWYQQKSHESPRLLIKYASQSISGIPSRFSGSGSGSDFTLSINSVEPEDVGVYYCQNGHSFPYTFGGGTKLEIK
